The chains are these.
T1: human TAT226 expressed on the surface of OVCAR3 cells (human, UniProt Q8N2G4 21-117)
T1 construct: Endogenous protein on the human ovarian cancer line OVCAR3; also called cell surface TAT226; PSCA Hlog
T1 sequence: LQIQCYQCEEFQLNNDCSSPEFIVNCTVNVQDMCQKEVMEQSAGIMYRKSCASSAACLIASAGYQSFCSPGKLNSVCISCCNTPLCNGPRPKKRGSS

T2: recombinant gD:human TAT226 fusion protein expressed on HCT116#9-4 cells (herpes simplex virus type 1; human, UniProt Q8N2G4 23-141)
T2 sequence: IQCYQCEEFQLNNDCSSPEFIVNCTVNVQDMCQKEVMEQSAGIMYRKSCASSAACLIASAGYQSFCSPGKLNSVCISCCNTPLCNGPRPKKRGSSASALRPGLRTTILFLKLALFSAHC

T3: recombinant TAT226-His fusion protein (human, UniProt Q8N2G4 21-115)
T3 construct: also called recombinant antigen; not shown: C-terminal polyhistidine tag
T3 sequence: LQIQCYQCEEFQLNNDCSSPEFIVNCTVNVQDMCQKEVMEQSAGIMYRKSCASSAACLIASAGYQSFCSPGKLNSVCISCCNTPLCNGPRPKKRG

B1: YWO.49.H6 (antibody, V domains shown)
VH: EVQLVESGGGLVQPGGSLRLSCAASGFTITNYGIHWVRQAPGKGLEWVGRIYPDSGATYYADSVKGRFTISADTSKNTAYLQMNSLRAEDTAVYYCARKLWISIAGMDYWGQGTLVTVSS
VL: DIQMTQSPSSLSASVGDRVTITCRASQDVSTAVAWYQQKPGKAPKLLIYSASFLYSGVPSRFSGSGSGTDFTLTISSLQPEDFATYYCQHSYATPFTFGQGTKVEIKR
notes: also called YWO.H6
B2: YWO.49.H2 (antibody, V domains shown)
VH: B1 VH with I102V, I104L, G106P
VL: B1 VL with H90Q, A93G, T97I
B3: YWO.49.H2-MC-vc-PAB-MMAF (antibody, V domains shown)
VH: B1 VH with I102V, I104L, G106P
VL: B1 VL with H90Q, A93G, T97I
modifications: MC-vc-PAB-MMAF conjugated to cysteine residues of the partially reduced antibody; average drug load 4.7 per antibody
B4: YWO.49.H6-MC-vc-PAB-MMAF (antibody, V domains shown)
VH: B1 VH
VL: B1 VL
modifications: MC-vc-PAB-MMAF conjugated to cysteine residues of the partially reduced antibody; average drug load 4.4 per antibody
B5: YWO.49.H2-MC-vc-PAB-MMAE (antibody, V domains shown)
VH: B1 VH with I102V, I104L, G106P
VL: B1 VL with H90Q, A93G, T97I
modifications: MC-vc-PAB-MMAE conjugated to cysteine residues of the partially reduced antibody; average drug load 3.8 per antibody
B6: YWO.49.H6-MC-vc-PAB-MMAE (antibody, V domains shown)
VH: B1 VH
VL: B1 VL
modifications: MC-vc-PAB-MMAE conjugated to cysteine residues of the partially reduced antibody; average drug load 4.4 per antibody
B7: YWO.49 (antibody, V domains shown)
VH: B1 VH with I102V, I104R
VL: B1 VL with H90Q, A93T, F96P
notes: detected with anti-human IgG; also called anti-TAT226 monoclonal antibody YWO.49
B8: YWO.49.C9 (antibody, V domains shown)
VH: B1 VH with I102V, S103T, I104L, G106S
VL: B1 VL with H90K, A93N, F96P
B9: YWO.49.B7 (antibody, V domains shown)
VH: B1 VH with I102V, I104L, G106A
VL: B1 VL with H90R, Y92V, A93F, F96P, T97A

Where a chain is given by its changes, count along the chain named. A value given as a limit tells only on which side of the number the result lay.

One experiment has as its target T1, human TAT226 expressed on the surface …. As to the kind of experiment: competition of iodinated antibody with unlabeled antibody on OVCAR3 cells, Scatchard analysis. The method, then: The binding affinity of YWO.49.H2 and YWO.49.H6 for TAT226 expressed on the surface of OVCAR3 cells was examined using a competition assay. Briefly, labeled (iodinated) YWO.49.H2 or YWO.49.H6 was allowed to bind to OVCAR3 cells in the presence of unlabeled antibody. Binding affinity of the antibodies was determined in accordance with the Scatchard analysis methodology initially described in Munson et al., Anal. Biochem. 107:220 (1980).
For orientation: Kd means the constant that tells how readily two partners part at equilibrium. The molecule B1 displayed a Kd of 0.404 nM.

As to B2, the Kd worked out at 0.348 nM.

The next experiment deals with T2, recombinant gD:human TAT226 fusion …. Kind of experiment: cell-based or functional assay.
B3: the “IC50, in vitro cell killing assay on HCT116#9-4 transfectants (CellTiter-Glo, 3 days)” value is ~0.05 nM.

With B4, the “IC50, in vitro cell killing assay on HCT116#9-4 transfectants (CellTiter-Glo, 3 days)” value was ~0.05 nM.

Another experiment has as its target T1, human TAT226 expressed on the surface …. Kind of experiment: cell-based or functional assay.
Take B3: the “IC50, OVCAR3 in vitro cell killing assay (CellTiter-Glo, 5 days)” value (“IC50, OVCAR3 in vitro cell killing assay” for short) was ~0.005 nM.

With B4, the “IC50, OVCAR3 in vitro cell killing assay” value is ~0.005 nM.

B5: the “IC50, OVCAR3 in vitro cell killing assay” value is ~0.2 nM.

With B6, the “IC50, OVCAR3 in vitro cell killing assay” value is ~0.2 nM.

A further experiment concerns the target T3, recombinant TAT226-His fusion protein. Kind of experiment: SPR, BIACORE 3000, IgG immobilised on CM5 chip, TAT226-His injected (0.7-500 nM), 25 C. How it is done: The binding affinity of YWO.49, YWO.49.B7, YWO.49.C9, YWO.49.H2, and YWO.49.H6 for recombinant antigen was determined by surface plasmon resonance measurement using a BIACORE® 3000 system (Biacore, Inc., Piscataway, N.J.). Briefly, carboxymethylated dextran biosensor chips (CM5, Biacore Inc.) were activated with N-ethyl-N′-(3-dimethylaminopropyl)-carbodiimide hydrochloride (EDC) and N-hydroxysuccinimide (NHS) according to the supplier's instructions. Anti-TAT226 antibody was diluted to 5 ug/ml with 10 mM sodium acetate, pH 4.8, before injection at a flow rate of 5 μl/minute to achieve approximately 500 response units (RU) of coupled antibody. Next, 1M ethanolamine was injected to block unreacted groups. For kinetics measurements, two-fold serial dilutions of TAT226-His (0.7 nM to 500 nM) were injected in PBS with 0.05% Tween 20 at 25° C. at a flow rate of 25 μl/min Association rates (kₒₙ) and dissociation rates (koff) were calculated using a simple one-to-one Langmuir binding model (BIAevaluation Software version 3.2). The equilibrium dissociation constant (Kd) was calculated as the ratio koff/kₒₙ.
A general note: Surface plasmon resonance follows binding to a sensor surface in real time, without labels.
In the case of B1, the Kd amounted to 0.05 nM.

On to B7, for which the Kd amounted to 47.2 nM.

As for B8, the Kd was < 0.03 nM.

On to B9, for which the Kd was < 0.18 nM.

Consider B2, for which the Kd came out at 0.23 nM.

The values are drawn from patent US20120100159A1 (Genentech, published 2012).
